The text below walks through data of US20200354474A1 (BROWN UNIVERSITY, published 2020).

Experiment [1] deals with T1, human Chi3l1 (chitinase 3-like-1) (human, UniProt P36222 22-383).
T1 construct: also called YKL-40; recombinant (r) human Chi3l1
Description: Western blot and ELISA, denaturing and non-denaturing conditions. Background: In western blotting, separated proteins are transferred to a membrane and probed.

The target of experiment [2] is T2, mouse Chi3l1 (chitinase 3-like-1) (mouse, UniProt Q61362 30-389, limits assumed).
T2 construct: Recombinant mouse Chi3l1; also called murine Chi3l1; Chil1 (printed 'Chill')
T2 sequence (Q61362 30-389 limits assumed): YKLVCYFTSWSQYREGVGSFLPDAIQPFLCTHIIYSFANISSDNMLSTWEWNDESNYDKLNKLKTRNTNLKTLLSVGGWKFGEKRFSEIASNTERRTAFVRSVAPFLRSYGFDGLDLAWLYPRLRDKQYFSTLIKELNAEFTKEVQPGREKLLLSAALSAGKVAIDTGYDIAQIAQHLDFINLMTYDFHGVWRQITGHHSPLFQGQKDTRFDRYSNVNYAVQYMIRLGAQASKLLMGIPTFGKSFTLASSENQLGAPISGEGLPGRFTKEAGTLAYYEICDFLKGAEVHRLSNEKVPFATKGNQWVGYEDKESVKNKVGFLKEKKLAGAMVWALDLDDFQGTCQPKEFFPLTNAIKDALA
Described as above.

T1 sequence (P36222 22-383 limits assumed): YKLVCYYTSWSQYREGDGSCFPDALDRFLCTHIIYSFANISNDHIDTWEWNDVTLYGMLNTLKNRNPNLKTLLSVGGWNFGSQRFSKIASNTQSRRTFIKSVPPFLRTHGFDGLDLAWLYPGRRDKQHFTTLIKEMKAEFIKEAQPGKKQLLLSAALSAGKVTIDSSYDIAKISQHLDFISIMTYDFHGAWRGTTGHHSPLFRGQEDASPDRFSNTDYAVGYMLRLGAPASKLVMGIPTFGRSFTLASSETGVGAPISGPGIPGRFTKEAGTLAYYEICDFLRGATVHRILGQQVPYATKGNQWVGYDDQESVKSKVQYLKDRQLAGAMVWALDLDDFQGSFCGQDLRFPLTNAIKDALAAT

B1: FRG monoclonal antibody (antibody, V domains shown)
VH: QIQLVQSGPELKKPGETVKISCKASGYTFTNYGMNWVKQAPGKGLKWMGWINTYTGEPTYADDFKGRFAFSLETSASTAYLQINNLRNEDMSTYFCARLGYGKFYVMDYWGQGTSVTVSS
VL: DVVMTQTPLSLPVSLGDQASISCRSSQSLVHSNGNTYLHWYLQKPGQSPKLLIYKVSNRFSGVPDRFSGSGSGTDFTLKISRVEAEDLGVYFCSQSTHVTWTFGGGTKLEIK
notes: also called FRG mAb; anti-Chi3l1-FRG
B1: the binding result in experiment [1] and in experiment [2] was “binds” in each case.
